Experimental data reported in patent publication US20230407373A1 (priority 2020, published 2023).

Test system: HCoV-OC43 gRNA and sgRNA
Format: binding

B1: G3BP2: host protein of the core SARS-CoV-2 RNA interactome (protein, UniProt Q9UN86 2-482, looked up)
Ras GTPase-activating …: VMEKPSPLLVGREFVRQYYTLLNKAPEYLHRFYGRNSSYVHGGVDASGKPQEAVYGQNDIHHKVLSLNFSECHTKIRHVDAHATLSDGVVVQVMGLLSNSGQPERKFMQTFVLAPEGSVPNKFYVHNDMFRYEDEVFGDSEPELDEESEDEVEEEQEERQPSPEPVQENANSGYYEAHPVTNGIEEPLEESSHEPEPEPESETKTEELKPQVEEKNLEELEEKSTTPPPAEPVSLPQEPPKAFSWASVTSKNLPPSGTVSSSGIPPHVKAPVSQPRVEAKPEVQSQPPRVREQRPRERPGFPPRGPRPGRGDMEQNDSDNRRIIRYPDSHQLFVGNLPHDIDENELKEFFMSFGNVVELRINTKGVGGKLPNFGFVVFDDSEPVQRILIAKPIMFRGEVRLNVEEKKTRAARERETRGGGDDRRDIRRNDRGPGGPRGIVGGGMMRDRDGRGPPPRGGMAQKLGSGRGTGQMEGRFTGQRR
- background (unweighted spectral count, no-probe control): 1
- target (unweighted spectral count): 4
- target (unweighted spectral count, OC43 Probe II capture): 4
- target (unweighted spectral count, OC43 Probe II): 9
